Substrate in series [1]: CCn1c(=NN=c2sc3cc(S(=O)(=O)O)ccc3n2CC)sc2cc(S(=O)(=O)O)ccc21
The series can be described thus: purified protein. It counts as biochemical, Streptomyces griseoflavus. Conditions: pH 4.0, 50 mM Britton-Robinson buffer, 30 °C, co-substrate O2, table header prints unit as MM.

Substrate in series [2]: COc1cccc(OC)c1O
In words: purified protein. The series is classed as biochemical, Streptomyces griseoflavus. Conditions: 30 °C, co-substrate O2, table header prints unit as MM.

Setting [3] is: pH 8.5, 50 mM Britton-Robinson buffer.
The mark [4] stands for this setting: pH 7.0, 50 mM Britton-Robinson buffer.
[5] abbreviates: pH 7.5, 50 mM Britton-Robinson buffer.

Changes are numbered by the printed parent chain. In names and notes the source's numbering stands.

B1: SgfSL (Streptomyces griseoflavus Small Laccase) (Streptomyces griseoflavus; D268N/M199G/R240H) (protein)
chain: AGAAPAGGEVRRVTMYAERLAGGQMGYGLEKGKASIPGPLIELNEGDTLHVEFENTMDVPVSLHVHGLDYEISSDGTKQNKSHVEPGGTRTYTWRTHEPGRRADGTWRAGSAGYWHYHDHVVGTEHGTGGIRNGLYGPVIVRRKGDVLPDATHTIVFNDGTINNRPAHTGPNFEATVGDRVEIVMITHGEYYHTFHMHGHHWADNRTGMLTGPDDPSQVIDNKICGPANSFGFQIIAGEGVGAGAWMYHCHVQSHSDMGMVGLFLVKKPDGTIPGYDPQEHAH
notes: pET32-Xa/LIC, E. coli BL21(DE3)/Rosetta; N-terminal thioredoxin-His tail cut off with factor Xa; homotrimer; all variants tested here carry D268N (wild-type data copied from earlier work)
As usually defined, the Km is the concentration of substrate that gives half-maximal velocity. The kcat is the number of substrate molecules converted per active site and unit of time at saturation. The term kcat/Km denotes the second-order rate constant that governs catalysis at low substrate concentration. For the protein B1, in the series “purified protein [1]”, the Km worked out at 250 ± 20 µM, the kcat turned out to be 38.9 ± 0.99 s⁻¹ and the kcat/Km was found to be 156000 M⁻¹ s⁻¹. Moreover, in “purified protein [2]” (setting [3]), the Km came out at 240 ± 30 µM, the kcat worked out at 8.19 ± 0.13 s⁻¹ and the kcat/Km amounted to 34100 M⁻¹ s⁻¹.

B2: SgfSL (Streptomyces griseoflavus Small Laccase) (Streptomyces griseoflavus; D268N/M199A) (protein)
chain: B1 chain with G160A, H201R
notes: as for B1
As to B2, in “purified protein [1]”, the Michaelis-Menten constant (Km) worked out at 110 ± 30 µM, the kcat worked out at 21.4 ± 1.12 s⁻¹ and the kcat/Km came out at 195000 M⁻¹ s⁻¹. In “purified protein [2]” (setting [4]), the Km stood at 870 ± 100 µM, the kcat was 0.8 ± 0.03 s⁻¹ and the kcat/Km was determined as 920 M⁻¹ s⁻¹.

B3: SgfSL (Streptomyces griseoflavus Small Laccase) (Streptomyces griseoflavus; D268N/M199G) (protein)
chain: B1 chain with H201R
notes: as for B1
In the case of B3, in “purified protein [1]”, the Km worked out at 220 ± 30 µM, the kcat is 37.7 ± 2.41 s⁻¹ and the kcat/Km is 171000 M⁻¹ s⁻¹. Further, in the series “purified protein [2]” (setting [5]), the Km came out at 290 ± 20 µM, the kcat came to 1.88 ± 0.05 s⁻¹ and the kcat/Km amounted to 6490 M⁻¹ s⁻¹.

These data come from PMC10419308, “Structural Insight into the Amino Acid Environment of the Two-Domain Laccase’s Trinuclear Copper Cluster” (International Journal of Molecular Sciences, 2023).
